Publication PMC9692563, “The HIV-1 Integrase C-Terminal Domain Induces TAR RNA Structural Changes Promoting Tat Binding”

Assays:
[1] = test system: Tat (HIV-1 primary isolate 133); experiment: BLI; details: EMSA: 20 mM MES pH 6.0, 150 mM NaCl, 2 mM DTT, 2 mM MgCl2, BSA, 8% PEG8000, 37 C 30 min (IN-FLm 2 h at 4 C); BLI: 50 mM HEPES pH 7.5, 200 mM NaCl, 2 mM BME, 5% …
IN-CTD-dCT [2] = target: T1, IN-CTD-dCT (HIV-1, UniProt P12497 1367-1417); experiment: BLI; 200 mM NaCl, 37 C; EMSA: 20 mM MES pH 6.0, 150 mM NaCl, 2 mM DTT, 2 mM MgCl2, BSA, 8% PEG8000, 37 C 30 min (IN-FLm 2 h at 4 C); BLI: 50 mM HEPES pH 7.5, 200 mM NaCl, 2 mM BME, 5%; details: protein: recombinant; tags: N-terminal 6xHis; label: 3' biotin; hairpin
IN-CTD [3] = target: T2, IN-CTD (HIV-1, UniProt P12497 1367-1435); experiment: as above; details: protein: recombinant; tags: N-terminal 6xHis; label: 3' biotin; hairpin
[4] = target: T3, IN-FLm (HIV-1 integrase, mammalian expressed) (HIV-1, UniProt P12497 1148-1435); experiment: EMSA; EMSA: 20 mM MES pH 6.0, 150 mM NaCl, 2 mM DTT, 2 mM MgCl2, BSA, 8% PEG8000, 37 C 30 min (IN-FLm 2 h at 4 C); BLI: 50 mM HEPES pH 7.5, 200 mM NaCl, 2 mM BME, 5%; details: protein: recombinant, tags: N-terminal Flag, label: 5' 32P
IN-CTD-dCT [5] = target: T1, IN-CTD-dCT; experiment: as above; details: protein: recombinant; tags: N-terminal 6xHis; label: 5' 32P; hairpin with bulge and hexaloop
[6] = target: IN-FL (integrase, E. coli) (HIV-1 NL4-3 (pNL4-3), UniProt P12497 1148-1435); experiment: as above; details: protein: recombinant; tags: N-terminal 6xHis; label: 5' 32P; hairpin with bulge and hexaloop
IN-CTD [7] = target: T2, IN-CTD; experiment: as above; details: protein: recombinant, tags: N-terminal 6xHis, label: 5' 32P
[8] = target: T3, IN-FLm (HIV-1 integrase, mammalian …); experiment: EMSA; similar to wild type; EMSA: 20 mM MES pH 6.0, 150 mM NaCl, 2 mM DTT, 2 mM MgCl2, BSA, 8% PEG8000, 37 C 30 min (IN-FLm 2 h at 4 C); BLI: 50 mM HEPES pH 7.5, 200 mM NaCl, 2 mM BME, 5%; details: protein: recombinant; tags: N-terminal Flag; label: 5' 32P; hairpin
IN-CTD-dCT [9] = target: T1, IN-CTD-dCT; experiment: EMSA; not affected by stem shortening; EMSA: 20 mM MES pH 6.0, 150 mM NaCl, 2 mM DTT, 2 mM MgCl2, BSA, 8% PEG8000, 37 C 30 min (IN-FLm 2 h at 4 C); BLI: 50 mM HEPES pH 7.5, 200 mM NaCl, 2 mM BME, 5%; details: protein: recombinant; tags: N-terminal 6xHis; label: 5' 32P; hairpin
[10] = hairpin with bulge and hexaloop

GGGCCAGAUCUGAGCCUGGGAGCUCUCUGGCCC [Bt-TAR]
Kd [1]: 1490 nM

CGUCCAUCUGGUCAUCUAGUGAUAUCAUCG [Bt-RNA(30)-mer]
Kd [1]: 3840 nM

GGGCCAGAUCUGAGCCUGGGAGCUCUCUGGCCC (structured_RNA) [Bt-TAR]
Kd (IN-CTD-dCT [2]): 770 nM | Kd (IN-CTD [3]): 320 nM

CGUCCAUCUGGUCAUCUAGUGAUAUCAUCG (ssRNA) [RNA(30)-mer]
binding result ([4]; weakly structured): binds

B1: TAR (structured_RNA)
RNA: GGGUCUCUCUGGUUAGACCAGAUCUGAGCCUGGGAGCUCUCUGGCUAACUAGGGAACCC
binding result [4, 10]: binds | binding result (IN-CTD-dCT [5]): binds | binding result [6]: binds | binding result (IN-CTD [7]; [10]): binds

GGGCACUGCUUAAGCCUCAAUAAAGCUUGCCUUGAGUGCUUCAAGUAGUG (structured_RNA) [polyA]
binding result (IN-CTD [7]; hairpin): binds

GGGCUCGGCUUGCUGAAGCGCGCACGGCAAGAGGCGAG (structured_RNA) [DIS]
binding result (IN-CTD [7]; hairpin): binds

B2: SD/Psi (structured_RNA)
RNA: GGGCGACUGGUCAGUACGCCAAAAAUUUUGACUAGCGGAGGCUAGAAGGAG
binding result (IN-CTD [7]; hairpin): binds

B3: TAR-LS (structured_RNA)
RNA: GGGUCUCUCUGGUUAGACCAGAUCUGAGCGCUGGGACGCUCUCUGGCUAACUAGGGAACCC
binding result [8]: binds

B4: TAR-SS (structured_RNA)
RNA: GGGUCUCUCUGGUUAGACCAGAUCUGAGCUGGGACUCUCUGGCUAACUAGGGAACCC
binding result (IN-CTD-dCT [9]): binds

B5: TAR-VSS (structured_RNA)
RNA: GGGUCUCUCUGGUUAGACCAGAUCUGAGCGCUCUCUGGCUAACUAGGGAACCC
binding result (IN-CTD-dCT [9]): binds
